Measured values from patent publication US20140087995A1 (published 2014).
Values belong to the binder of their own block, whether it stands above or below them. Numbered stars: 1 amine (or outer) side, 2 acyl side, 3 side chain; on linkers, the order of the positions; unused ones are H or OH. Bridge positions count the residues as written; N and C are the ends. Side chains are listed from the residue outwards. Ends that are not written are not given here. * marks the point of attachment. C20 diacid = O=C(O)CCCCCCCCCCCCCCCCCCC(=O)*; C16 diacid = O=C(O)CCCCCCCCCCCCCCC(=O)*; γGlu = O=C(O)[C@H](CCC(=O)[*:2])N[*:1]; C14 diacid = O=C(O)CCCCCCCCCCCCC(=O)*; AEEA = NCCOCCOCC(=O)O

Tests used:
[1] = biological target: T1, rat calcitonin receptor (rat, UniProt P32214 25-516); assay: SPA competition vs 125I-calcitonin, membranes (Assay VIII)
T1 construct: whole, on cells; Membranes prepared from transiently transfected BHK tk'ts 13 cells; also called rCTR; rat calcitonin (a) receptor
T1 sequence (looked up): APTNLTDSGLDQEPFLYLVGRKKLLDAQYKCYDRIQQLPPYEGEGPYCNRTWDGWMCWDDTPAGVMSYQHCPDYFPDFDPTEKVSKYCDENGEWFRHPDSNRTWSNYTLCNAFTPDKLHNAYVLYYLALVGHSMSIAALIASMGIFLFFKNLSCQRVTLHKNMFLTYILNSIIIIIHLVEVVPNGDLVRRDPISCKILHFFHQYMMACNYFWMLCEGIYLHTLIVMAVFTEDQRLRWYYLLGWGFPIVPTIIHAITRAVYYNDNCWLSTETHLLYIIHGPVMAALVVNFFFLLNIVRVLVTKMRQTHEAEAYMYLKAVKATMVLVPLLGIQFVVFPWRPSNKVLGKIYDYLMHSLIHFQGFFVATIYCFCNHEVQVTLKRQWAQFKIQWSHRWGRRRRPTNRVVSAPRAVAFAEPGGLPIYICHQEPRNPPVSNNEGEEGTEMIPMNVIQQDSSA

[2] = biological target: T2, rat amylin receptor (rat calcitonin receptor + rat RAMP 3) (rat, UniProt P32214 25-516; Q9JJ73 23-147); assay: SPA competition vs 125I-rat amylin, membranes (Assay VI)
T2 construct: whole, on cells; Membranes prepared from transiently transfected BHK tk'ts 13 cells; also called rAmylin-R; rat amylin 3(a) receptor
T2 sequence (looked up) 1: T1 sequence (looked up)
T2 sequence (looked up) 2: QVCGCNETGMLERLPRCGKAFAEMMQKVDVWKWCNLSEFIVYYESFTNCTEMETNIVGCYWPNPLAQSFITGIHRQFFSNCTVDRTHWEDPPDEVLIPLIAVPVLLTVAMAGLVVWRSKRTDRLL

[3] = biological target: T1, rat calcitonin receptor; assay: ratio of IC50 on rat calcitonin receptor to IC50 on rat amylin receptor
[4] = biological target: T3, human calcitonin receptor (human, UniProt P30988 25-474); assay: ratio of IC50 on human calcitonin receptor to IC50 on human amylin receptor
T3 construct: whole, on cells; Membranes from stably transfected BHK cells; also called hCTR; hCT
T3 sequence (looked up): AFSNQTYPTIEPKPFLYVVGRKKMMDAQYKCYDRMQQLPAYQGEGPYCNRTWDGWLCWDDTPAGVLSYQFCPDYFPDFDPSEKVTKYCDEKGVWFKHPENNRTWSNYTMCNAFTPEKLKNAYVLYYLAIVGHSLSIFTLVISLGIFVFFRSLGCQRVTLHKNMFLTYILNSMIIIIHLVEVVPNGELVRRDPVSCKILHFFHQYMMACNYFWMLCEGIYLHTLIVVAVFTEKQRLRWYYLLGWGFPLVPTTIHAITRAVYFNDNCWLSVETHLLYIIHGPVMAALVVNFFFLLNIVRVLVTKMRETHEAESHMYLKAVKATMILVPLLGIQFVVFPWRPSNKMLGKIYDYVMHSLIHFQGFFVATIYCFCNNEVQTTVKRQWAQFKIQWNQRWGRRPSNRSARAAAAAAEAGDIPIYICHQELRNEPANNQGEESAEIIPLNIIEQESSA
Protocol: The resulting pellet was resuspended, homogenized and centrifuged (20.000 rpm, 15 min) in a buffer containing 20 mM Na-HEPES and 0.1 mM EDTA (pH 7.4, buffer 2). The resulting pellet was resuspended in buffer 2 and protein concentration was measured (BCA protein Assay, Pierce). The homogenate was kept cold during the whole procedure. The membranes were kept at −80° C. until use. The assay was performed in a 384 well Optiplate (PerkinElmer) in a total volume of 40 ul. Membranes were mixed with SPA beads. Final concentration of membranes 35 ng/μL final and SPA beads was 0.05 mg/well. Test-compounds were dissolved in DMSO and further diluted in assay buffer (50 mM Hepes, pH 7.4, 1 mM CaCl2, 5 mM MgCl₂, 0.1% OA and 0.02% Tween20). […] The final mixture was incubated with shaking at 400 rpm for 120 min at 25° C. prior to centrifugation (1500 rpm, 10 min). Samples were analyzed on TopCounter™ (Packard). The IC₅₀ was calculated using (one site binding competition analysis) GraphPad Prism5 as a measure of receptor affinity.
Membranes were prepared in the following way; the cells were rinsed with PBS and incubated with Versene for approximately 5 min before harvesting. The cells were flushed with PBS and the cell-suspension was centrifuged for 5 min at 1000 rpm. Cells were homogenized (Ultrathurrax) in a buffer containing 20 mM Na-HEPES and 10 mM EDTA (pH 7.4) and centrifuged at 20.000 rpm for 15 min. The resulting pellet was resuspended, homogenized and centrifuged (20.000 rpm, 15 min) in a buffer containing 20 mM Na-HEPES and 0.1 mM EDTA (pH 7.4, buffer 2). The resulting pellet was resuspended in buffer 2 and protein concentration was measured (BCA protein Assay, Pierce). The homogenate was kept cold during the whole procedure. The membranes were kept at −80° C. until use. Assay was performed in a 384 well Optiplate (PerkinElmer) in a total volume of 40 ul. Membranes were mixed with SPA beads.

IC50 [1]: 62.2 nM | IC50 [2]: 0.529 nM | Ratio rCT/rAmylin binding [3]: 118 | Ratio hCT/hAmylin binding [4]: 79.6
B1: N^ε1-[2-[2-[2-[[2-[2-[2-[[(4S)-4-carboxy-4-(19-carboxynonadecanoylamino)butanoyl]amino]ethoxy]ethoxy]acetyl]amino]ethoxy]ethoxy]acetyl]-[Arg17,Pro21,Pro27,Pro31 … (peptide)
peptide: K([AEEA-AEEA-γGlu-C20 diacid])CNTATCATQRLANFLRHSSPNFGAIPSSTPVGSNTY-NH2
modifications: disulfide 2-7; N-terminus assumed
SMILES: CC[C@H](C)[C@H](NC(=O)[C@H](C)NC(=O)CNC(=O)[C@H](Cc1ccccc1)NC(=O)[C@H](CC(N)=O)NC(=O)[C@@H]1CCCN1C(=O)[C@H](CO)NC(=O)[C@H](CO)NC(=O)[C@H](Cc1c[nH]cn1)NC(=O)[C@H](CCCNC(=N)N)NC(=O)[C@H](CC(C)C)NC(=O)[C@H](Cc1ccccc1)NC(=O)[C@H](CC(N)=O)NC(=O)[C@H](C)NC(=O)[C@H](CC(C)C)NC(=O)[C@H](CCCNC(=N)N)NC(=O)[C@H](CCC(N)=O)NC(=O)[C@@H](NC(=O)[C@H](C)NC(=O)[C@@H]1CSSC[C@H](NC(=O)[C@@H](N)CCCCNC(=O)COCCOCCNC(=O)COCCOCCNC(=O)CC[C@H](NC(=O)CCCCCCCCCCCCCCCCCCC(=O)O)C(=O)O)C(=O)N[C@@H](CC(N)=O)C(=O)N[C@@H]([C@@H](C)O)C(=O)N[C@@H](C)C(=O)N[C@@H]([C@@H](C)O)C(=O)N1)[C@@H](C)O)C(=O)N1CCC[C@H]1C(=O)N[C@@H](CO)C(=O)N[C@@H](CO)C(=O)N[C@H](C(=O)N1CCC[C@H]1C(=O)N[C@H](C(=O)NCC(=O)N[C@@H](CO)C(=O)N[C@@H](CC(N)=O)C(=O)N[C@H](C(=O)N[C@@H](Cc1ccc(O)cc1)C(N)=O)[C@@H](C)O)C(C)C)[C@@H](C)O
notes: also called compound 96

IC50 [1]: 707 nM | IC50 [2]: 2.52 nM | Ratio rCT/rAmylin binding [3]: 280 | Ratio hCT/hAmylin binding [4]: 23.5
B2: N^ε1-[(4S)-4-carboxy-4-(13-carboxytridecanoylamino)butanoyl]-[Arg17,Pro21,Pro27,His34]-h-amylin (peptide)
peptide: K([γGlu-C14 diacid])CNTATCATQRLANFLRHSSPNFGAIPSSTNVGHNTY-NH2
modifications: disulfide 2-7; N-terminus assumed
SMILES: CC[C@H](C)[C@H](NC(=O)[C@H](C)NC(=O)CNC(=O)[C@H](Cc1ccccc1)NC(=O)[C@H](CC(N)=O)NC(=O)[C@@H]1CCCN1C(=O)[C@H](CO)NC(=O)[C@H](CO)NC(=O)[C@H](Cc1c[nH]cn1)NC(=O)[C@H](CCCNC(=N)N)NC(=O)[C@H](CC(C)C)NC(=O)[C@H](Cc1ccccc1)NC(=O)[C@H](CC(N)=O)NC(=O)[C@H](C)NC(=O)[C@H](CC(C)C)NC(=O)[C@H](CCCNC(=N)N)NC(=O)[C@H](CCC(N)=O)NC(=O)[C@@H](NC(=O)[C@H](C)NC(=O)[C@@H]1CSSC[C@H](NC(=O)[C@@H](N)CCCCNC(=O)CC[C@H](NC(=O)CCCCCCCCCCCCC(=O)O)C(=O)O)C(=O)N[C@@H](CC(N)=O)C(=O)N[C@@H]([C@@H](C)O)C(=O)N[C@@H](C)C(=O)N[C@@H]([C@@H](C)O)C(=O)N1)[C@@H](C)O)C(=O)N1CCC[C@H]1C(=O)N[C@@H](CO)C(=O)N[C@@H](CO)C(=O)N[C@H](C(=O)N[C@@H](CC(N)=O)C(=O)N[C@H](C(=O)NCC(=O)N[C@@H](Cc1c[nH]cn1)C(=O)N[C@@H](CC(N)=O)C(=O)N[C@H](C(=O)N[C@@H](Cc1ccc(O)cc1)C(N)=O)[C@@H](C)O)C(C)C)[C@@H](C)O

IC50 [1]: 404 nM | IC50 [2]: 1.24 nM | Ratio rCT/rAmylin binding [3]: 327 | Ratio hCT/hAmylin binding [4]: 18.5
B3: N^ε1-[(4S)-4-carboxy-4-(15-carboxypentadecanoylamino)butanoyl]-[Arg17,Pro21,Pro27,His34]-h-amylin (peptide)
peptide: K([γGlu-C16 diacid])CNTATCATQRLANFLRHSSPNFGAIPSSTNVGHNTY-NH2
modifications: disulfide 2-7; N-terminus assumed
SMILES: CC[C@H](C)[C@H](NC(=O)[C@H](C)NC(=O)CNC(=O)[C@H](Cc1ccccc1)NC(=O)[C@H](CC(N)=O)NC(=O)[C@@H]1CCCN1C(=O)[C@H](CO)NC(=O)[C@H](CO)NC(=O)[C@H](Cc1c[nH]cn1)NC(=O)[C@H](CCCNC(=N)N)NC(=O)[C@H](CC(C)C)NC(=O)[C@H](Cc1ccccc1)NC(=O)[C@H](CC(N)=O)NC(=O)[C@H](C)NC(=O)[C@H](CC(C)C)NC(=O)[C@H](CCCNC(=N)N)NC(=O)[C@H](CCC(N)=O)NC(=O)[C@@H](NC(=O)[C@H](C)NC(=O)[C@@H]1CSSC[C@H](NC(=O)[C@@H](N)CCCCNC(=O)CC[C@H](NC(=O)CCCCCCCCCCCCCCC(=O)O)C(=O)O)C(=O)N[C@@H](CC(N)=O)C(=O)N[C@@H]([C@@H](C)O)C(=O)N[C@@H](C)C(=O)N[C@@H]([C@@H](C)O)C(=O)N1)[C@@H](C)O)C(=O)N1CCC[C@H]1C(=O)N[C@@H](CO)C(=O)N[C@@H](CO)C(=O)N[C@H](C(=O)N[C@@H](CC(N)=O)C(=O)N[C@H](C(=O)NCC(=O)N[C@@H](Cc1c[nH]cn1)C(=O)N[C@@H](CC(N)=O)C(=O)N[C@H](C(=O)N[C@@H](Cc1ccc(O)cc1)C(N)=O)[C@@H](C)O)C(C)C)[C@@H](C)O

IC50 [1]: 24.1 nM | IC50 [2]: 0.137 nM | Ratio rCT/rAmylin binding [3]: 176 | Ratio hCT/hAmylin binding [4]: 74.1
B4: N^ε1-[2-[2-[2-[[2-[2-[2-[[(4S)-4-carboxy-4-(19-carboxynonadecanoylamino)butanoyl]amino]ethoxy]ethoxy]acetyl]amino]ethoxy]ethoxy]acetyl]-[Arg17,Pro21,Pro27,Pro34 … (peptide)
peptide: K([AEEA-AEEA-γGlu-C20 diacid])CNTATCATQRLANFLRHSSPNFGAIPSSTNVGPNTY-NH2
modifications: disulfide 2-7; N-terminus assumed
SMILES: CC[C@H](C)[C@H](NC(=O)[C@H](C)NC(=O)CNC(=O)[C@H](Cc1ccccc1)NC(=O)[C@H](CC(N)=O)NC(=O)[C@@H]1CCCN1C(=O)[C@H](CO)NC(=O)[C@H](CO)NC(=O)[C@H](Cc1c[nH]cn1)NC(=O)[C@H](CCCNC(=N)N)NC(=O)[C@H](CC(C)C)NC(=O)[C@H](Cc1ccccc1)NC(=O)[C@H](CC(N)=O)NC(=O)[C@H](C)NC(=O)[C@H](CC(C)C)NC(=O)[C@H](CCCNC(=N)N)NC(=O)[C@H](CCC(N)=O)NC(=O)[C@@H](NC(=O)[C@H](C)NC(=O)[C@@H]1CSSC[C@H](NC(=O)[C@@H](N)CCCCNC(=O)COCCOCCNC(=O)COCCOCCNC(=O)CC[C@H](NC(=O)CCCCCCCCCCCCCCCCCCC(=O)O)C(=O)O)C(=O)N[C@@H](CC(N)=O)C(=O)N[C@@H]([C@@H](C)O)C(=O)N[C@@H](C)C(=O)N[C@@H]([C@@H](C)O)C(=O)N1)[C@@H](C)O)C(=O)N1CCC[C@H]1C(=O)N[C@@H](CO)C(=O)N[C@@H](CO)C(=O)N[C@H](C(=O)N[C@@H](CC(N)=O)C(=O)N[C@H](C(=O)NCC(=O)N1CCC[C@H]1C(=O)N[C@@H](CC(N)=O)C(=O)N[C@H](C(=O)N[C@@H](Cc1ccc(O)cc1)C(N)=O)[C@@H](C)O)C(C)C)[C@@H](C)O
notes: also called compound 98
